Reference: publication PMC2191888

Molecular target: MCP-1 receptor(s) on THP-1 cells (human (endogenous in THP-1)) (UniProt P41597)
Assay: radioligand binding

Kd | IC50 | fold higher Kd than MCP-1 | Substance
23 nM |  |  | MCP-1 5-76 analogue (from UniProt P13500 28-99) (domain or fragment)
8.3 nM | 17 nM |  | MCP-1 9-76 analogue (from UniProt P13500 32-99) (domain or fragment)
 |  | 13 fold | MCP-1 10-76 analogue (from UniProt P13500 33-99) (domain or fragment)
385 nM |  |  | MCP-1 2-76 analogue (from UniProt P13500 25-99) (domain or fragment)
 |  | 48 fold | MCP-1 11-76 analogue (from UniProt P13500 34-99) (domain or fragment)
487 nM |  |  | MCP-1 3-76 analogue (from UniProt P13500 26-99) (domain or fragment)
333 nM |  |  | MCP-1 (Ac) (from UniProt P13500 24-99) (ligand)
2.8 nM |  |  | Monocyte chemoattractant protein 1 (MCP-1), synthetic, NH2-terminal pyroglutamate form (from UniProt P13500 24-99) (ligand)
